The target of experiment [1] is Trop-2 (human) (UniProt P09758). The experiment in a line: ELISA on Trop-2-expressing cell lines PC-3 and Calu-3. In general terms: ELISA stands for enzyme-linked immunosorbent assay.
For experiment [2] the target is unchanged. The experiment can be described thus: cell-based or functional assay.
Experiment [3] has the same target. The experiment can be described thus: ELISA on Trop-2-expressing cell lines PC-3 and Calu-3, apparent KD.

UniProt P09758, sequence (P09758 27-323): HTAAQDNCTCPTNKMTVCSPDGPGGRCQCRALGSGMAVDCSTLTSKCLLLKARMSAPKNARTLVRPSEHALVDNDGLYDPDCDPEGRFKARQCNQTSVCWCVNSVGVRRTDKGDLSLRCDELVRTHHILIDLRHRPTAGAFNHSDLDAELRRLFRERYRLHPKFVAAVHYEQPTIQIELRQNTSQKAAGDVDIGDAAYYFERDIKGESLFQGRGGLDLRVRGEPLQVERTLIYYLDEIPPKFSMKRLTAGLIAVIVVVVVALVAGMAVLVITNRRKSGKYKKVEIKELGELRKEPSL

“2L-Rap(Q)-hRS7 (from UniProt P22069 1-104)”: the fold of apparent KD against hRS7 in experiment [1] stood at 2 fold. Further, in experiment [2], the EC50, MTS cell proliferation assay, Calu-3 cells came to 8.5 nM; the EC50, MTS cell proliferation assay, MDA-MB-468 cells stood at 3.8 nM; the EC50, MTS cell proliferation assay, ME-180 cells was found to be 1.5 nM; the EC50, MTS cell proliferation assay, T-47D cells came to 2 nM. Also, the Kd in experiment [3] was 0.28 nM.

B1: humanized RS7 anti-Trop-2 antibody (hRS7 IgG) (antibody, INN chains, looked up, V domains shown)
VH: QVQLQQSGSELKKPGASVKVSCKASGYTFTNYGMNWVKQAPGQGLKWMGWINTYTGEPTYTDDFKGRFAFSLDTSVSTAYLQISSLKADDTAVYFCARGGFGSSYWYFDVWGQGSLVTVSS
VL: DIQLTQSPSSLSASVGDRVSITCKASQDVSIAVAWYQQKPGKAPKLLIYSASYRYTGVPDRFSGSGSGTDFTLTISSLQPEDFAVYYCQQHYITPLTFGAGTKVEIK
modifications: IgG
Take B1: the Kd in experiment [3] worked out at 0.14 nM.

Source of the values: patent EP2506881B1.
